Patent publication US20220340666A1

Target: endogenous Galectin-9 on CRL-2134 cells (human) (UniProt O00182)
Experiment: cell-based binding assay, flow cytometry on CRL-2134 cells

Sequence of endogenous Galectin-9 on CRL-2134 cells (human) (O00182 whole entry): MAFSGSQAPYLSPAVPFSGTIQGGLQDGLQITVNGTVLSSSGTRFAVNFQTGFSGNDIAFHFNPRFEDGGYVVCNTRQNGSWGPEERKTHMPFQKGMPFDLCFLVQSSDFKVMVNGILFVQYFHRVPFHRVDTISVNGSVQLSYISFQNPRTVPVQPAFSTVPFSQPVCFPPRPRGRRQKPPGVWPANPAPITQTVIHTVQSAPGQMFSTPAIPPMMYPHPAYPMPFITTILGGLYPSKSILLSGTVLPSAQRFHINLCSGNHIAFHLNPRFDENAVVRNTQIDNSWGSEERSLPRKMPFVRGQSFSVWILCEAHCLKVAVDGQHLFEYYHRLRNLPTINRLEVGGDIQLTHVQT

Binder | Kd
G9.2-17 hIgG1 (antibody, V domains shown) VH: EVQLVESGGGLVQPGGSLRLSCAASGFTVSSSSIHWVRQAPGKGLEWVAYISSSSGYTYYADSVKGRFTISADTSKNTAYLQMNSLRAEDTAVYYCARYWSYPSWWPYRGMDYWGQGTLVTVSS VL: DIQMTQSPSSLSASVGDRVTITCRASQSVSSAVAWYQQKPGKAPKLLIYSASSLYSGVPSRFSGSRSGTDFTLTISSLQPEDFATYYCQQSSTDPITFGQGTKVEIKR | 0.41 nM
G9.2-17 mIgG1 (antibody, V domains shown) VH: EVQLVESGGGLVQPGGSLRLSCAASGFTVSSSSIHWVRQAPGKGLEWVAYISSSSGYTYYADSVKGRFTISADTSKNTAYLQMNSLRAEDTAVYYCARYWSYPSWWPYRGMDYWGQGTLVTVSS VL: DIQMTQSPSSLSASVGDRVTITCRASQSVSSAVAWYQQKPGKAPKLLIYSASSLYSGVPSRFSGSRSGTDFTLTISSLQPEDFATYYCQQSSTDPITFGQGTKVEIKR | 2.91 nM
